The text below walks through data of US20030215913A1 (published 2003).

B1: BMP-6 (ligand, UniProt P22004 382-513, looked up)
chain: QQSRNRSTQSQDVARVSSASDYNSSELKTACRKHELYVSFQDLGWQDWIIAPKGYAANYCDGECSFPLNAHMNATNHAIVQTLVHLMNPEYVPKPCCAPTKLNAISVLYFDDNSNVILKKYRNMVVRACGCH
B2: BMP-5 (ligand, UniProt P22003 317-454, looked up)
chain: AANKRKNQNRNKSSSHQDSSRMSSVGDYNTSEQKQACKKHELYVSFRDLGWQDWIIAPEGYAAFYCDGECSFPLNAHMNATNHAIVQTLVHLMFPDHVPKPCCAPTKLNAISVLYFDDSSNVILKKYRNMVVRSCGCH
B3: fas-ligand (ligand, UniProt P48023 134-281, looked up)
chain: PSPPPEKKELRKVAHLTGKSNSRSMPLEWEDTYGIVLLSGVKYKKGGLVINETGLYFVYSKVYFRGQSCNNLPLSHKVYMRNSKYPQDLVMMEGKMMSYCTTGQMWARSSYLGAVFNLTSADHLYVNVSELSLVNFEESQTFFGLYKL
notes: Negative control injected over the LP226 surface; also called negative control

This test addresses T1, LP226 (human, UniProt Q6WN34 26-429, limits assumed).
T1 construct: Secreted chordin-like protein; the cleavage site was not determined by experiment; also called LP226 polypeptide; LP polypeptide
T1 sequence: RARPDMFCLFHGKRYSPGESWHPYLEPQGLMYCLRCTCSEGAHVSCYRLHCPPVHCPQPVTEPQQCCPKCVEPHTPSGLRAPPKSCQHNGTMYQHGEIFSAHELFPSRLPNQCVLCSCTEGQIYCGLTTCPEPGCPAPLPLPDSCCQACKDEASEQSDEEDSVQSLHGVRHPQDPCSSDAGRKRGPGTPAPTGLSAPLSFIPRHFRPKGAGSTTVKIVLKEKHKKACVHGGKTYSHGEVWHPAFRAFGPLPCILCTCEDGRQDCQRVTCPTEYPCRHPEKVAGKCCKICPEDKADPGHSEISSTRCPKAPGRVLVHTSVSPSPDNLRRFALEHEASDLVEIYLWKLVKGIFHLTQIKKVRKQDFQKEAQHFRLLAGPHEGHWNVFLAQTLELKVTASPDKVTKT
Nature of the test: BIAcore 2000 SPR, LP226 amine-coupled to CM5 chip, ligand injected. The protocol: A BIAcore 2000 instrument is used to detect real-time binding between immobilized LP226 and various TGF-beta and BMP proteins. LP226 is diluted to a concentration of […] in 10 mM sodium acetate buffer at pH 5.0. LP226 is immobilized to a CM5 sensor chip using the amine coupling method. Follistatin, containing BSA, is immobilized as a positive control.
TGF-beta and BMP proteins are diluted in HBS-EP buffer. Samples are injected over LP226 and control surfaces using the kinject method. Samples containing 5 µg/mL and 1 μg/mL of protein are injected at 30 μL/min for three minutes with a ninety second dissociation time. LP226 and control surfaces are then regenerated with glycine-hydrochloride at pH 3.0.
(In general: Surface plasmon resonance follows binding to a sensor surface in real time, without labels.)
On to B1, for which the binding result was “no binding (tested: 5 g/mL and 1 µg/mL)”.

On to B2, for which the binding result is “no binding (tested: 5 g/mL and 1 µg/mL)”.

For the molecule B3, the binding result is recorded as “no binding”.
